Measurements from patent US20170129940A1.

Tests used:
Conditions in all cases: remark: other sources report otherwise
[1] = target: T1, hCMV gH + gL + UL128 + UL130 + UL131A (co-expressed in HEK293T cells) (human cytomegalovirus), P12824; test: competitor: 8J16-biotin; cell staining
[2] = target: T1, hCMV gH + gL + UL128 + UL130 + UL131A …; test: competitor: 8I21-biotin; cell staining
[3] = target: T1, hCMV gH + gL + UL128 + UL130 + UL131A …; test: competitor: 1F11-biotin; cell staining
[4] = target: T1, hCMV gH + gL + UL128 + UL130 + UL131A …; test: competitor: 2C12-biotin; cell staining
[5] = target: T1, hCMV gH + gL + UL128 + UL130 + UL131A …; test: competitor: 4I22-biotin; cell staining
[6] = target: T1, hCMV gH + gL + UL128 + UL130 + UL131A …; test: competitor: 5A2-biotin; cell staining
[7] = target: T1, hCMV gH + gL + UL128 + UL130 + UL131A …; test: competitor: 2F4-biotin; cell staining
[8] = target: T1, hCMV gH + gL + UL128 + UL130 + UL131A …; test: competitor: 4N10-biotin; cell staining
[9] = target: T1, hCMV gH + gL + UL128 + UL130 + UL131A …; test: competitor: 10F7-biotin; cell staining
[10] = target: T1, hCMV gH + gL + UL128 + UL130 + UL131A …; test: competitor: 8C15-biotin; cell staining
[11] = target: T1, hCMV gH + gL + UL128 + UL130 + UL131A …; test: competitor: 9I6-biotin; cell staining
[12] = target: T1, hCMV gH + gL + UL128 + UL130 + UL131A …; test: competitor: 6G4-biotin; cell staining
[13] = target: T1, hCMV gH + gL + UL128 + UL130 + UL131A …; test: competitor: 15D8-biotin; cell staining

Binder	Inhibition of binding (%) [1]	Inhibition of binding (%) [2]	Inhibition of binding (%) [3]	Inhibition of binding (%) [4]	Inhibition of binding (%) [5]	Inhibition of binding (%) [6]	Inhibition of binding (%) [7]	Inhibition of binding (%) [8]	Inhibition of binding (%) [9]	Inhibition of binding (%) [10]	Inhibition of binding (%) [11]	Inhibition of binding (%) [12]	Inhibition of binding (%) [13]
4I22 (antibody, V domains shown) VH: QVQLVESGGGVVQPGRSLRLSCVASGFTFSSYAMHWVRQAPGKGLEWVAVISYDGDNKFYADSVKGRFRISRDTSKNTLYLEMNSLRAADTAIYYCAREELVGLMPPYYNYGLDVWGQGTTVTVSS VL: QSVLTQPPSVSAAPGQKVTISCSGSNSNIGNNYVSWYQQLPGRAPKLLIYDNDHRPSGIPDRFSGSKSGTSATLVITGLQTGDEADYYCETWDTSLSAAVVFGGGTKLTVL	0%	0%	100%	0%	100%	0%	100%	0%	100%				
8C15 (antibody, V domains shown) VH: QVQLQESGPGLVKPSETLSLTCTVSGGSIRSYYWSWIRQPPGKGLEWIGHIYYSGNTNYSPSLQSRVTISLDTPKNQFSLRLSSVTAADTAVYYCARHDVIVVRGVFDVWGQGTVVTVSS VL: QSALTQPASVSGSPGQSITISCTGTSSDIGTYNLVSWYQQHPGKAPKVLIYDGSKRPSGVSSRFSASKSGNTASLTISGLQAEDETDYYCCSYAGTSDFFVVFGGGTKLTVL	100%	0%		100%	0%					100%	100%	100%	
8L13 (antibody, V domains shown) VH: QVQLLESGGGVVQPGRSLRLSCAASGFTFSNYGMHWVRQAPGKGLEWVAVIWNDGSKKYYAESVKGRFTISRDNSKNTVYLQMNSLRAEDTAVYYCARDEGVQMVFAMPDYGMDVWGQGTTVTVSS VL: SYELTQPPSVSVSPGQTASITCSGDKLGDKFACWYQQRPGQSPILVIYQDSKRPSGIPERFSGSNSGNTATLTIRGTQAMDEADYYCQAWDSSTAHYVFGTGTKVTVL			100%						100%				
7I13 (antibody, V domains shown) VH: QVQLVESGGGVVQPGRSLRLSCAASGFTFSNYGMHWVRQGPGKGLEWVAVISYDASSKYYTDSVQGRFTISRDNSKNTLFLQMNSLRGEDTAVYYCAKALRYLDWFLSDPFDYWGQGTLVTVSS VL: EIVLTQSPGTLSLSPGERATLSCRASQSVSSDFLAWYQQKPGQAPRLLIYGASSRATGIPDRFSGSGSGTDFTLTISRLEPEDFAVYYCQQYAASPPFGQGTRLEIK	0%	0%	0%	0%						0%	0%	0%	
7B13 (antibody, V domains shown) VH: QVQLVESGGGVVQPGGSLRLSCAASGFSFSNYGMHWVRQAPGKGLEWVALIPSDGNYQYYTDSVKGRFTVSRDNSRNTLYLQMKSLRAEDTARYHCAHLGGGLFDFWGQGTLVTVSS VL: QSALNQPRSVSGSPGQSVSISCTGSSSDVGGYEFVSWYQHHPGKAPKLIIYDVDKRPSGVPDRFSGSRSGDTASLTISGLQAEDEADYYCYSSADTWVFGGGTKLTVL	100%	0%		100%						100%	100%	100%	
8I21 (antibody, V domains shown) VH: LVELVESGGGVVQPGRSLRLSCAASGFTFSSDGMHWVRQSPGRGLEWVAFISSDGSTPYYADSVKGRFTISRDNSKNTLYLQMNSLRAEDTAMYFCAKDWALFRWLRTFDHWGQGTLVTVSS VL: not shown		100%	0%	0%	0%	95%	0%	90%				0%	0%
15D8 (antibody, V domains shown) VH: EVQLVQSGAEVKKPGESLKISCQASGYSFTNYWIAWVRQMPGKGLEWMGIIYPGDSDIKYSPSFRGQVTISADKSISNAFLQWRSLRASDTAMYYCARHAIRGDGFDYWGQGTLVTVSS VL: SYELTQPPSVSVSPGQTATITCSGDKLGEKYACWYQQKPGQSPVLVMYQDTKRPSGIPERFSGSNSGNTATLTISGTRAMDEADYYCQAWDTNTVIFGGGTKLTVL		0%	0%	0%	0%	0%	0%	0%	0%			0%	100%
4N10 (antibody, V domains shown) VH: QVQLVQSGAEVKKPGSSVRVSCKASGGTFSSYVIIWVRQAPGQGLEWMGGVIPIFDTVNYAQKFQGRVTITADESTSTAYMELSSLKSEDTAVYYCARGILAYCGGDCYNTPYGMDVWGQGTTVTVSS VL: DIQMTQSPSILSASVGDRVTITCRASQSISSWLAWYQQKPGKAPKLLIYKASSLEIGVPSRISGSGSGTEFTLTISSLQPDDFATYYCQQYNSSWTFGQGTKVEIK		90%	0%	0%	0%	100%	0%	100%	0%			0%	0%
10F7 (antibody, V domains shown) VH: EVQLVESGGGLVQPGRSLRLSCTASGFTFGDYAMSWFRQAPGKGLEWVGFIRSKAYGGTTEYAASVKGRFTISRDDSKSIAYLQMNSLKTEDTAVYYCTRASSLLWLLNPQPNFDYWGQGTLVTVSS VL: SYVLTQPPSVSVAPGQTARITCGGNNIGSNNVHWYQQKPGQAPVLVVYDDSDRPSGIPERFSGSNSGNTATLTISRVEAGDEADYYCQVWDSSSDHPVFGGGTKLTVL		0%	100%	0%	100%	0%	100%	0%	100%			0%	0%
10P3 (antibody, V domains shown) VH: EVQLVESGGGLVRPGGSLRLSCAASGFTFHNYRMNWVRQAPGKGLEWVANIKQDGSEKSYVDSVRGRFTTSRDNSKNSLYLQINSLRAEDTAVYYCARGEGYTYGVVYSYSAMDVWGQGTTVIVSS VL: SYELTQPPSVSVSPGQTARITCSGNVLPNQYASWYQQKPGQAPVLVIYKDTERPSGIPGRFSGSSSGTTVTLTISGVQAEDEADYYCQSADSSGADYVFGTGTKVTVL		0%	0%	0%	0%		0%					0%	0%
